Test results from the supplement of paper PMC10567573.

Assay: protein stability index of a GFP-peptide fusion (GPS, HEK-293T) (PSI 1-6); higher = more stable
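Also: lentivirally expressed fusions sorted by FACS into six bins by GFP to DsRed ratio, PSI derived from sequencing read proportions per bin multiplied by bin number.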

## IIKKVAEVALDKGCSQFRLAVLDW
parent: IOH12374_19, c terminus: a fixed tail appended
  protein stability index: 2.44

## FCIDSENRIGNSGVEEIKGHPFFE
parent: IOH11742_61, c terminus: a fixed tail appended
  protein stability index: 2.18

## CVQCKMPVCYQCLEEGKHSSHEVK
parent: IOH12704_41, c terminus: a fixed tail appended
  protein stability index: 3.89

## ILREELQKQRLREILEQQQQERND [ZNF277 WT]
parent: IOH12086_23, c terminus: a fixed tail appended
  protein stability index: 4.26

## QKRYHCKECGKVFSQSAGLIQHQR
parent: IOH12838_52, c terminus: a fixed tail appended
  protein stability index: 3.14

## LLEDMRASEAFHWDERGRAAAYSP
parent: IOH11833_9, c terminus: a fixed tail appended
  protein stability index: 1.79

## FQELAGKELCAMSEEQFRQRSPLG
parent: IOH12673_30, c terminus: a fixed tail appended
  protein stability index: 2.63

## LVVFTASMEIYGSAVADKLDNSRS [DULLARD WT]
parent: IOH12711_22, c terminus: a fixed tail appended
  protein stability index: 2.76

## LWKMKPRRNLEEDDYLHKDTGETS
parent: IOH13052_3, c terminus: a fixed tail appended
  protein stability index: 4.46

## SSKSRAAPSPQEALVRLRETEEML
parent: IOH12461_3, c terminus: a fixed tail appended
  protein stability index: 1.94

## VCCCELGVNPDQVEKIRKLPNTLL
parent: IOH13159_50, c terminus: a fixed tail appended
  protein stability index: 1.91

## QCIECGKSFNRHCNLIRHQKIHTV
parent: IOH12838_62, c terminus: a fixed tail appended
  protein stability index: 3.73

## EPLPVERDPAAGAAPFRFVARPVR
parent: IOH11805_4, c terminus: a fixed tail appended
  protein stability index: 2.21

## YPEDSSWAAKAPGASSREEPPEEP
parent: IOH12673_12, c terminus: a fixed tail appended
  protein stability index: 4.25

## MTVEKEAPDAHFTVDKQNISLWPR [CD207 WT]
parent: IOH12930_1, c terminus: a fixed tail appended
  protein stability index: 3.23

## AEVSWEPGRREGCDICAGKAGCPI [RPS21 WT]
parent: IOH11779_7, c terminus: a fixed tail appended
  protein stability index: 3.06

## NIPFFPDLQITDQVALLRLTWSEL
parent: IOH12813_39, c terminus: a fixed tail appended
  protein stability index: 2.29

## TNIRLPNVPSSSLPAQPNRKPGMS
parent: IOH12461_31, c terminus: a fixed tail appended
  protein stability index: 4.51

## VRIQNPSLRENDFIEIELDRQELT
parent: IOH13159_45, c terminus: a fixed tail appended
  protein stability index: 2.38

## RMVPALPPKRMLGADREFIEARRR
parent: IOH13259_22, c terminus: a fixed tail appended
  protein stability index: 3.67

## FDALDDYEHHYHTLHGNVCSFCKR
parent: IOH11805_16, c terminus: a fixed tail appended
  protein stability index: 3.55

## YQNHKITQLKIENNPFAKGFRGSD
parent: IOH11603_37, c terminus: a fixed tail appended
  protein stability index: 2.57

## YQSYFKTIEELQQKILCSKSENAR
parent: IOH13096_18, c terminus: a fixed tail appended
  protein stability index: 1.93

## YQELLRVCCCELGVNPDQVEKIRK
parent: IOH13159_49, c terminus: a fixed tail appended
  protein stability index: 2.07

## FPESETKECPFRVNKVCGAACSSK [SERPINB5 WT]
parent: IOH12329_30, c terminus: a fixed tail appended
  protein stability index: 2.39

## VVLKLFLSFSGSDVQNKLKESAQC
parent: IOH13259_29, c terminus: a fixed tail appended
  protein stability index: 2.49

## GYGIYYFIYSTWKGRTIYLEDIYV
parent: IOH12374_13, c terminus: a fixed tail appended
  protein stability index: 3

## LTEAEGWHFFCFQGEATRKLAGK
parent: IOH12374_27, c terminus: native
  protein stability index: 2.13

## FSHDGLHVASLADDKMVRFWRIDE
parent: IOH12660_54, c terminus: a fixed tail appended
  protein stability index: 1.85

## KYMPHLCQDSSGEVSCQCQLHPPR [MGC27345 WT]
parent: IOH12124_9, c terminus: a fixed tail appended
  protein stability index: 2

## FHEVGTEMIITKAGRRMFPSYKVK
parent: IOH11603_12, c terminus: a fixed tail appended
  protein stability index: 2.15

## HLYPADFRFDKPKKSRSPASAEAP
parent: IOH11805_29, c terminus: a fixed tail appended
  protein stability index: 2.92

## PAVDLNQVLNETRNQYEALVETNR
parent: IOH13096_37, c terminus: a fixed tail appended
  protein stability index: 3.33

## YEHHYHTLHGNVCSFCKRAFPSGH
parent: IOH11805_17, c terminus: a fixed tail appended
  protein stability index: 2.07

## FLPGGDMMTLLMKKDTLTEEETQF
parent: IOH11742_29, c terminus: a fixed tail appended
  protein stability index: 2.21

## DLKDDGNMMKVLRGHQNWVYSCAF
parent: IOH12660_34, c terminus: a fixed tail appended
  protein stability index: 2

## AAPFRFVARPVRFPREHQFFEDGD
parent: IOH11805_6, c terminus: a fixed tail appended
  protein stability index: 2.1

## EENMERIGEEVRQLMEKLREKQLS
parent: IOH13216_14, c terminus: a fixed tail appended
  protein stability index: 4.44

## WMLTRKQFGLLSFFFAVLHAIYSL
parent: IOH13052_27, c terminus: a fixed tail appended
  protein stability index: 1.71

## SLRENDFIEIELDRQELTYQELLR
parent: IOH13159_46, c terminus: a fixed tail appended
  protein stability index: 2.87

## SGLVRRLWRSRVVPDREEGGSGGG [SMAD6 WT]
parent: IOH13078_2, c terminus: a fixed tail appended
  protein stability index: 4.12

## FAPLLDEQYDLATKRVRQLLDLDP [GOLPH3 WT]
parent: IOH12568_43, c terminus: a fixed tail appended
  protein stability index: 2.12

## YGETDFHKQDGKAGLFSQEQYERN [TMEM40 WT]
parent: IOH12831_5, c terminus: a fixed tail appended
  protein stability index: 4.04

## LHQETQLIHVYLPLTSHILRAFVN
parent: IOH13259_67, c terminus: a fixed tail appended
  protein stability index: 2.4

## VGAAGSARQELLGDRPRWQRLLGE
parent: IOH11833_41, c terminus: a fixed tail appended
  protein stability index: 3.32

## TLAALLLNRSESDIRYLLGYVSQQ [FEM1B WT]
parent: IOH13134_4, c terminus: a fixed tail appended
  protein stability index: 2.44

## PRNSCITCPQCHRSLILDDRGLRG
parent: IOH12704_21, c terminus: a fixed tail appended
  protein stability index: 2.06

## NWKETLVFPPEVPISEKAKDLILR
parent: IOH11742_57, c terminus: a fixed tail appended
  protein stability index: 3.08

## HSLRAVSTDPPHHDHHDEFCLMP
parent: IOH13216_18, c terminus: native
  protein stability index: 2.27

## RQLAYSTVGTPDYIAPEVFMQTGY
parent: IOH11742_47, c terminus: a fixed tail appended
  protein stability index: 2.48

## FWNFKQMWDSKKIGLRQHHCRKCG [WDFY2 WT]
parent: IOH13317_50, c terminus: a fixed tail appended
  protein stability index: 2

## VAHVESLQEKSQCALEEYVRSQYP
parent: IOH12813_56, c terminus: a fixed tail appended
  protein stability index: 3.61

## YVPEKVKKAEKKLEENPYDLDAWS [CSTF3 WT]
parent: IOH12987_3, c terminus: a fixed tail appended
  protein stability index: 2.14
